The test system of data set [1] is HeLa Kyoto. Briefly: thermal stability score vs G1/S (z-score of summed log2 fold changes over temperatures); higher = more thermally stable than in G1/S.
The subject of data set [2] is HeLa Kyoto. Nature of the data set: melting temperature (median over replicates), in situ; higher = more thermally stable.
The subject of data set [3] is HeLa Kyoto. Briefly: solubility in G1/S (NP-40 vs SDS abundance) (log2 ratio); higher = more soluble. Conditions: cell cycle stage: G1/S.
The subject of data set [4] is HeLa Kyoto. Nature of the data set: solubility change mitosis vs G1/S (difference of NP-40 vs SDS log2 ratios) (log2 ratio difference); higher = more soluble in mitosis.
Setting [5] is: cell cycle stage: early G1 (4.5 h after nocodazole release).
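Throughout, for melting temperature (median over replicates), in situ: HeLa Kyoto cells synchronized by double thymidine or nocodazole block, proteins quantified by TMT10plex mass spectrometry, three independent biological replicates.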
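Throughout, for solubility change mitosis vs G1/S (difference of NP-40 vs SDS log2 ratios): synchronized HeLa Kyoto cells (double thymidine block for G1/S, nocodazole release for mitosis), protein amounts in NP-40 versus SDS lysates quantified by mass spectrometry, three biological replicates.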
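Throughout, for solubility in G1/S (NP-40 vs SDS abundance): HeLa Kyoto cells arrested at G1/S by double thymidine block, proteins quantified by TMT10plex mass spectrometry in mild NP-40 versus SDS extracts, three biological replicates.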
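Throughout, for thermal stability score vs G1/S (z-score of summed log2 fold changes over temperatures): synchronized HeLa Kyoto cells, proteins quantified by TMT10plex mass spectrometry, three biological replicates, mitosis taken 0.5 h after nocodazole release, G1/S directly after double thymidine block.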

Take “MPSTNRAGSLKDPEIAELFFKEDPEKLFTDLREIGHGSFGAVYFARDVRTNEVVAIKKMSYSGKQSTEKWQDIIKEVKFLQRIKHPNSIEYKGCYLREHTAWLVMEYCLGSASDLLEVHKKPLQEVEIAAITHGALQGLAYLHSHTMIHRDIKAGNILLTEPGQVKLADFGSASMASPANSFVGTPYWMAPEVILAMDEGQYDGKVDVWSLGITCIELAERKPPLFNMNAMSALYHIAQNESPTLQSNEWSDYFRNFVDSCLQKIPQDRPTSEELLKHIFVLRERPETVLIDLIQRTKDAVRELDNLQYRKMKKLLFQEAHNGPAVEAQEEEEEQDHGVGRTGTVNSVGSNQSIPSMSISASSQSSSVNSLPDVSDDKSELDMMEGDHTVMSNSSVIHLKPEEENYREEGDPRTRASDPQSPPQVSRHKSHYRNREHFATIRTASLVTRQMQEHEQDSELREQMSGYKRMRRQHQKQLMTLENKLKAEMDEHRLRLDKDLETQRNNFAAEMEKLIKKHQAAMEKEAKVMSNEEKKFQQHIQAQQKKELNSFLESQKREYKLRKEQLKEELNENQSTPKKEKQEWLSKQKENIQHFQAEEEANLLRRQRQYLELECRRFKRRMLLGRHNLEQDLVREELNKRQTQKDLEHAMLLRQHESMQELEFRHLNTIQKMRCELIRLQHQTELTNQLEYNKRRERELRRKHVMEVRQQPKSLKSKELQIKKQFQDTCKIQTRQYKALRNHLLETTPKSEHKAVLKRLKEEQTRKLAILAEQYDHSINEMLSTQALRLDEAQEAECQVLKMQLQQELELLNAYQSKIKMQAEAQHDRELRELEQRVSLRRALLEQKIEEEMLALQNERTERIRSLLERQAREIEAFDSESMRLGFSNMVLSNLSPEAFSHSYPGASGWSHNPTGGPGPHWGHPMGGPPQAWGHPMQGGPQPWGHPSGPMQGVPRGSSMGVRNSPQALRRTASGGRTEQGMSRSTSVTSQISNGSHMSYT [TAOK1]”: the thermal stability score in data set [1] (setting [5]) was 0.109; in data set [1] (cell cycle stage: mitosis) it was -0.35. Besides, the melting temperature was 51.7 °C in data set [2] (cell cycle stage: G1/S) and 50.8 °C in data set [2] (cell cycle stage: mitosis). The “solubility in G1/S (log2)” value in data set [3] is 0.0325. In addition, the “solubility change mitosis (log2)” value in data set [4] is -0.0943.
Regarding “MPTQRDSSTMSHTVAGGGSGDHSHQVRVKAYYRGDIMITHFEPSISFEGLCNEVRDMCSFDNEQLFTMKWIDEEGDPCTVSSQLELEEAFRLYELNKDSELLIHVFPCVPERPGMPCPGEDKSIYRRGARRWRKLYCANGHTFQAKRFNRRAHCAICTDRIWGLGRQGYKCINCKLLVHKKCHKLVTIECGRHSLPQEPVMPMDQSSMHSDHAQTVIPYNPSSHESLDQVGEEKEAMNTRESGKASSSLGLQDFDLLRVIGRGSYAKVLLVRLKKTDRIYAMKVVKKELVNDDEDIDWVQTEKHVFEQASNHPFLVGLHSCFQTESRLFFVIEYVNGGDLMFHMQRQRKLPEEHARFYSAEISLALNYLHERGIIYRDLKLDNVLLDSEGHIKLTDYGMCKEGLRPGDTTSTFCGTPNYIAPEILRGEDYGFSVDWWALGVLMFEMMAGRSPFDIVGSSDNPDQNTEDYLFQVILEKQIRIPRSLSVKAASVLKSFLNKDPKERLGCHPQTGFADIQGHPFFRNVDWDMMEQKQVVPPFKPNISGEFGLDNFDSQFTNEPVQLTPDDDDIVRKIDQSEFEGFEYINPLLMSAEECV [PRKCI]”, the thermal stability score in data set [1] (setting [5]) was 0.877; in data set [1] (cell cycle stage: mitosis), 0.84. Also, the melting temperature came out at 50.7 °C in data set [2] (cell cycle stage: G1/S) and 51 °C in data set [2] (cell cycle stage: mitosis). For the same sequence, the “solubility in G1/S (log2)” value in data set [3] was -0.127. Besides, in data set [4], the “solubility change mitosis (log2)” value was -0.129.
With “MPTTIEREFEELDTQRRWQPLYLEIRNESHDYPHRVAKFPENRNRNRYRDVSPYDHSRVKLQNAENDYINASLVDIEEAQRSYILTQGPLPNTCCHFWLMVWQQKTKAVVMLNRIVEKESVKCAQYWPTDDQEMLFKETGFSVKLLSEDVKSYYTVHLLQLENINSGETRTISHFHYTTWPDFGVPESPASFLNFLFKVRESGSLNPDHGPAVIHCSAGIGRSGTFSLVDTCLVLMEKGDDINIKQVLLNMRKYRMGLIQTPDQLRFSYMAIIEGAKCIKGDSSIQKRWKELSKEDLSPAFDHSPNKIMTEKYNGNRIGLEEEKLTGDRCTGLSSKMQDTMEENSESALRKRIREDRKATTAQKVQQMKQRLNENERKRKRWLYWQPILTKMGFMSVILVGAFVGWTLFFQQNAL [PTPN2]”, the values for the thermal stability score in data set [1] (setting [5]) and in data set [1] (cell cycle stage: mitosis) were 0.409 and 1.35, respectively. Further, the melting temperature in data set [2] (cell cycle stage: G1/S) worked out at 49 °C; in data set [2] (cell cycle stage: mitosis) it was 49.2 °C. For the same sequence, the “solubility in G1/S (log2)” value in data set [3] was 0.0769. The “solubility change mitosis (log2)” value in data set [4] is -0.142.
With “MPVVRKIFRRRRGDSESEEDEQDSEEVRLKLEETREVQNLRKRPNGVSAVALLVGEKVQEETTLVDDPFQMKTGGMVDMKKLKERGKDKISEEEDLHLGTSFSAETNRRDEDADMMKYIETELKKRKGIVEHEEQKVKPKNAEDCLYELPENIRVSSAKKTEEMLSNQMLSGIPEVDLGIDAKIKNIISTEDAKARLLAEQQNKKKDSETSFVPTNMAVNYVQHNRFYHEELNAPIRRNKEEPKARPLRVGDTEKPEPERSPPNRKRPANEKATDDYHYEKFKKMNRRY [C9ORF78]”, the thermal stability score was -2.13 in data set [1] (setting [5]) and -4.34 in data set [1] (cell cycle stage: mitosis). The melting temperature came to 57.3 °C in data set [2] (cell cycle stage: G1/S) and 55.1 °C in data set [2] (cell cycle stage: mitosis). Moreover, the “solubility in G1/S (log2)” value in data set [3] was determined as 0.501. Also, the “solubility change mitosis (log2)” value in data set [4] was 0.0516.
With “MQANGAGGGGGGGGGGGGGGGGGGGQGQTPELACLSAQNGESSPSSSSSAGDLAHANGLLPSAPSAASNNSNSLNVNNGVPGGAAAASSATVAAASATTAASSSLATPELGSSLKKKKRLSQSDEDVIRLIGQHLNGLGLNQTVDLLMQESGCRLEHPSATKFRNHVMEGDWDKAENDLNELKPLVHSPHAIVVRGALEISQTLLGIIVRMKFLLLQQKYLEYLEDGKVLEALQVLRCELTPLKYNTERIHVLSGYLMCSHAEDLRAKAEWEGKGTASRSKLLDKLQTYLPPSVMLPPRRLQTLLRQAVELQRDRCLYHNTKLDNNLDSVSLLIDHVCSRRQFPCYTQQILTEHCNEVWFCKFSNDGTKLATGSKDTTVIIWQVDPDTHLLKLLKTLEGHAYGVSYIAWSPDDNYLVACGPDDCSELWLWNVQTGELRTKMSQSHEDSLTSVAWNPDGKRFVTGGQRGQFYQCDLDGNLLDSWEGVRVQCLWCLSDGKTVLASDTHQRIRGYNFEDLTDRNIVQEDHPIMSFTISKNGRLALLNVATQGVHLWDLQDRVLVRKYQGVTQGFYTIHSCFGGHNEDFIASGSEDHKVYIWHKRSELPIAELTGHTRTVNCVSWNPQIPSMMASASDDGTVRIWGPAPFIDHQNIEEECSSMDS [WDR26]”, the thermal stability score in data set [1] (setting [5]) is 0.266; in data set [1] (cell cycle stage: mitosis) it was 0.763. Besides, the results for the melting temperature in data set [2] (cell cycle stage: G1/S) and in data set [2] (cell cycle stage: mitosis) were 52.1 °C and 50.7 °C, respectively. Moreover, the “solubility in G1/S (log2)” value in data set [3] is -0.108. Moreover, the “solubility change mitosis (log2)” value in data set [4] was -0.151.

The values above are taken from the supplement of paper PMC5998384.
